Laboratory results published in the nanobody polyreactivity screen of Harvey et al. (2022).

Assay: yeast display, Sf9 membrane polyspecificity reagent, FACS + sequencing; frameworks hold sequencing errors
Method in brief: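 Nanobodies from a synthetic yeast display library (Saccharomyces cerevisiae BJ5465), induced 36–48 hours with galactose, were stained 1 hour at 4 °C with 10% biotinylated, detergent-solubilized Sf9 membrane reagent, enriched on streptavidin microbeads, then FACS-sorted. Anti-HA (expression) and streptavidin (reagent binding) fluorescence set low and high (top ~1%) gates. Polyreactivity labels come from the gate of origin. Genes were colony-PCR amplified, MiSeq 2 × 250 sequenced and filtered by CDR length.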

Row | Sequence | polyreactivity (PSR sort gate)
1 | QVQLVESGGGLVQAGGSLRLSCAASGRTFWNYAMGCYRQAPGKERELVAAISSSGGTTYYADSVKGRFTISRDNAKNTVYLQMNTLKPEDTAVYYCAATGVSKPQRSFGYWGQGTQVTVSS | low polyreactivity
2 | QVQLVESGGGLVQAGGSLRLSCAASGRTFWNYAMGWYRQAPGKERELVAAISSSGGTTYYADSVKGRFTISRDNAKNTVYLQMNSLKPEDTAVYYCAATGVSKPQRSFGYWGQGTQVTVSS | low polyreactivity
3 | QVQLVESGGGLVQAGGSLRLSCAASGRTFWNYAMGWYRQAPGKEREMVAVIRFSDGSTYYADSVKGRFTISRDNAKNTVYLQMNSLKPEDTAVYYCAAKGPRRWGSGFDYWGQGTQVTVSS | low polyreactivity
4 | QVQLVESGGGLVQAGGSLRLSCAASGRTFWTNAMGWYRQAPGKEREFVAAISWRGASTFYADSVKGRFTISRDNAKNTVYLQMNSLNPEDTAVYYCAAQSRTRSFYGKYDSWGQATQVTVSS | low polyreactivity
5 | QVQLVESGGGLVQAGGSLRLSCAASGRTFWVYAMGWYRQATGKERELVATISKSAGITSYADSVKGRFTFSRDNAKNTVYLQMNSLKPEDTAVFYCAADKSYRRVYYWGQGTQVTVSS | low polyreactivity
6 | QVQLVESGGGLVQAGGSLRLSCAASGRTFWWYAMGWYRQAPGKERELVAAITQSGGSTFYADSVKGRFTISRDNAKNTVYLQMNSLKPEDTAVYYWGQGTQVTVSS | low polyreactivity
7 | QVQLVESGGGLVQAGGSLRLSCAASGRTFWWYAMGWYRQAPGKERELVAGISGSTGTTHYADSVKGRFTISRDNAKNTVYLQMNSLKPEDTAGYYCAARRRYYRGFLFDYWGQGTQVTVSS | high polyreactivity
8 | QVQLVESGGGLVQAGGSLRLSCAASGRTFWYNAMGWYRQAPGKERELVAAITSSGGSTYYADSVKGRFTISRDNAKNTVYLQMNSLKPEDTAVYYCNKRPGPYKWPPRHDYWGQGTQVTVSS | low polyreactivity
9 | QVQLVESGGGLVQAGGSLRLSCAASGRTFWYNAMGWYRQAPGKERELVATINSVGSTNYADSVKGRFTISRDNAKNTVYLQMNSLKPEDTAVYDCNAGYGYVRGRKGGAIVKYYYWGQGTQVTVSS | high polyreactivity
10 | QVQLVESGGGLVQAGGSLRLSCAASGRTFWYNARGWYRQAPGKERELVAAITRGGGRTYYADSVKGRFTISRDNAKNTVYLQMNSPKPEDTAVYYCADDSHYDMNYWGQGTQVTVSS | low polyreactivity
11 | QVQLVESGGGLVQAGGSLRLSCAASGRTFWYYAMGWYREAPGKERELVAAITRGGRTNYADSVKGRFTISRDNAKNTVYLQMKSLKPEDTAVYYCAADYRYPAHSYGYWGQGTLVTVSS | high polyreactivity
12 | QVQLVESGGGLVQAGGSLRLSCAASGRTFWYYAMGWYRQAPGKERELVAAITWSGSDTYYADSVKGRFTISRDNAKNTVYLLMNSLKPEDTAVYYCAAEYSYESSGYDYWGQGTQVTVSS | high polyreactivity
13 | QVQLVESGGGLVQAGGSLRLSCAASGRTFWYYAMGWYRQAPGKERELVAGITFTGGRTYYADSVKGRFTISRDNAKNTVYLQMNSLKPEDTAVYYCAKATEYYAESDDYDYWGQGTQVTVSS | low polyreactivity
14 | QVQLVESGGGLVQAGGSLRLSCAASGRTFWYYAMGWYRQAPGKERELVASISASGGSTFYADSVKGRFSISRDHAKNTVYLQMNSLKPEDTAVYYCAAKNAVWRRYEYWGQGTQVTVSS | high polyreactivity
15 | QVQLVESGGGLVQAGGSLRLSCAASGRTFYANAMGWYRQAPGKERELVAAISRGGRTYYADSVKGRFTISRDNAKNTVYLQMNIMIPEDTSVYYCAARHTTTAVYSYYRADGGYWGQGTQVTVSS | low polyreactivity
16 | QVQLVESGGGLVQAGGSLRLSCAASGRTFYANAMVWYRQAPGKERELVAGISYSGGNTYYADSVKGRFTISRDNAKNTVYIQMNSLKPEDTAVYYCAAATVWEYWTYEDWGQGTQVTVSS | low polyreactivity
17 | QVQLVESGGGLVQAGGSLRLSCAASGRTFYAYAMGWYRQAPGKERELVAAINTSGGRTYYADSVKGRFTISRDNAKNTVYLLMNSLKPEDTAVYYCAADVFTFYPRRYDYWGQGTQVTVSS | low polyreactivity
18 | QVQLVESGGGLVQAGGSLRLSCAASGRTFYAYAMGWYRQAPGKERELVAAINTSGGRTYYADSVKGRFTISRDNAKNTVYLQMNSLKPEDTAVYYCAADVYTFYPRRYDYWGQGTQVTVSS | low polyreactivity
19 | QVQLVESGGGLVQAGGSLRLSCAASGRTFYAYAMGWYRQAPGKERELVAAISWRGGRTYYADSVKGRFTISRDNAKNTVYLQMNSLKPEDTAVYYCAAEYSYGFDYWGQGTQVTVSS | high polyreactivity
20 | QVQLVESGGGLVQAGGSLRLSCAASGRTFYAYGMGWYRQAPGKERELVARISSSTGRTYYADSVKGRFTISRDNAKNTVYLQMNSLKPEDTAVYYCAALFYGYRGGGYGGPAAGDYWGQGTQVTVSS | high polyreactivity
21 | QVQLVESGGGLVQAGGSLRLSCAASGRTFYDNTMGWYRQAPGKERELVAAITRNGGSTYYADSVKGRFTISRDNAKNTVYLQMNSLKPEDTAVYYCAVYVAYLYSYYYWGQGTQVSVSS | low polyreactivity
22 | QVQLVESGGGLVQAGGSLRLSCAASGRTFYDYAMGWYRQAPGKERELVAAISSRGGRTYYADSVKGRFTISRDNAKNTVYLQMNSLKPEDSAVYYCAKVVDYNDRDSWGQGTQVTVSS | high polyreactivity

Row | Sequence | polyreactivity (PSR sort gate)
23 | QVQLVESGGGLVQAGGSLRLSCAASGRTFYDYDMGWYRQAPGKERELFAAISGGDSTYYADSVKGRFTISRDNAKNTFYLQLKSLKPEDTAVYDCAVTPRGLPYGAYLLYYWGQGTQVTVSS | low polyreactivity
24 | QVQLVESGGGLVQAGGSLRLSCAASGRTFYDYDMGWYRQAPGKERELVATIRRDGSTYYADSVKGRFTISRDNAKNTVYLQMNSLKPEDTAVYYCAKDGGYPLDEPEFDYWGQGTQVTVSS | low polyreactivity
25 | QVQLVESGGGLVQAGGSLRLSCAASGRTFYEYAMGWYRQAPGKERELVAAITRSGGSTYYADSVKGRFTISRDNAKNTVYLQMNSLKPEDTAVYYCAAYRLQYRVRYYTAYDYWGQGTQVTVSS | high polyreactivity
26 | QVQLVESGGGLVQAGGSLRLSCAASGRTFYEYAMGWYRQAPGKESELVASIRSGGSTFYADSVKGRFTISRDNAKYTVYLQMNSLKPEDTAVYYCAAYRVPPYRYRFARVNYWGQGTQVTVSS | high polyreactivity
27 | QVQLVESGGGLVQAGGSLRLSCAASGRTFYFNAMGWYRQAPGKERELVAAITNSGGSTYYADSVKGRFTISRDNAKNTVYLQMNSLKPEDTAVYYCAATYKDGYWLVPGYGYWGQGTQVTVSS | low polyreactivity
28 | QVQLVESGGGLVQAGGSLRLSCAASGRTFYFNAMGWYRQAPGKERELVATITSDGSTNYADSVKGRFTISRDNAKNTVYLQMNSLKPEDTAVYYCAADYYRDIWPWYPLYNYWGQGTQVTVSS | low polyreactivity
29 | QVQLVESGGGLVQAGGSLRLSCAASGRTFYFYPMGWYRQAPGKERELVAAIRSSGGSTNYADSVKGRFTISRDNAKNTVYLQMNSLKPEDTAVYYFAAKRRAKGNYAFYYWGQGTQVTVSS | high polyreactivity
30 | QVQLVESGGGLVQAGGSLRLSCAASGRTFYFYTMGWYRQAPGKERELVAAITSGGSTNYADSVKGRFTISRDNAKNTVYLQMNSLKPEDTAVYYCAAAYWRPGVRFFGPYDYWGQGTQVTVSS | high polyreactivity
31 | QVQLVESGGGLVQAGGSLRLSCAASGRTFYFYVKGWYRQAPAKERELVARISWSGGSTYYADSVKGRFTISRDNAKNTVYLQMNSLKPEDTAVYYCARQYIYPSSGEYDSWGQGTQVTVSS | low polyreactivity
32 | QVQLVESGGGLVQAGGSLRLSCAASGRTFYGNAMGWYRQAPGKERELVAAITTGGGNTYYADSVKGRFTISRDHAKNTVYLQMNRLKPEDTAVYYCAAYERKFYTVSRWYKLDYWGQGTQVTVSS | high polyreactivity
33 | QVQLVESGGGLVQAGGSLRLSCAASGRTFYGYAMGWYRQAPGKERELVAGISGRGTRTYYADSVKGRFTISRDNAKNTVYLQMNSLKPEDTAVYYCNAVSIGYYSQSLGLDYWGQGTQVTVSS | high polyreactivity
34 | QVQLVESGGGLVQAGGSLRLSCAASGRTFYGYAMGWYRQAPGKERELVASISRDGSTNYADSVKGRFTISRDNAKNTVYLQMYSLKPEDTAVYYCAADIWYYRYPIYYYSYDYWGQGTQVTVSS | low polyreactivity
35 | QVQLVESGGGLVQAGGSLRLSCAASGRTFYGYAMGWYRQPPGKERELVATISGSGGTTYYADSVKGRFTISRDNAKNTVYLQMNSLKPEDTAVYYCAADRYLYFYWWPHVGGSPTYGYWGQGTQVTVSS | high polyreactivity
36 | QVQLVESGGGLVQAGGSLRLSCAASGRTFYHNAMGWYRQAPGKERELVATINSGGSTYADSVKGRFTISRDNAKNTVYLQMISLKPEDTAVYYCASTFWSRSRFYYRYDYWGQGTQVTVSS | high polyreactivity
37 | QVQLVESGGGLVQAGGSLRLSCAASGRTFYHYAMGWYRQAPGKERELVAAITYRGGNTYYADSVKGRFTISRDNAKNTVYLQMNSLKPEDTAVYFCAKQGVRRHYGYDYWGQGTQVTVSS | high polyreactivity
38 | QVQLVESGGGLVQAGGSLRLSCAASGRTFYINAMGWYRQAPGKERELVATISRSGGDTYYADSVKGRFTISRDNAKNTVYIEMTSLKPEDTAVYFCNARQYYYRSGAYASRYLYNYWGQGTQVTVSS | high polyreactivity
39 | QVQLVESGGGLVQAGGSLRLSCAASGRTFYIYAMGWYRQAPGKERELVAAITSGTSSTYYADSVKGRFTISRDNAKNTVYLQMNSLKPEDTAVYYCAASSTGYGGSTYYYWGQGTQVTVSS | low polyreactivity
40 | QVQLVESGGGLVQAGGSLRLSCAASGRTFYIYAMGWYRQAPGKERELVAAITYSSGTTYYADSVKGRFTISRDNAKNTVYLQMNSLKPEDTAVYYCAADVGFNQFDYWGQGTQVTVSS | low polyreactivity
41 | QVQLVESGGGLVQAGGSLRLSCAASGRTFYKYAMGWYIQAPGKERELVAAISSRGGRTYYADSVKGRFTISRDNAKNTVYLQMNSLKPEDTAVYYCAADYAVEWWGNWYEYWGQGTQVTVSS | high polyreactivity
42 | QVQLVESGGGLVQAGGSLRLSCAASGRTFYKYAMGWYRQAPGKERELVAAINRIGGRTYYADSVKGRFTISRDNAKNTVYLQMNSLKPEDTAVYYCAAEFVGDNRHGYWGQGTQVTVSS | high polyreactivity
43 | QVQLVESGGGLVQAGGSLRLSCAASGRTFYLNVMGWYRQAPGKEREFVASISTTGGSTYYADSVKGRFTISRDNAKNTVYLQMNSLKPDDTAVYYCAASLRYWARNYWGQGTQVTVSS | high polyreactivity
